Source: patent US20060008878A1 (UNIVERSITY OF CHICAGO, published 2006)

Target: the molecule itself
Assay: nondenaturing SDS-PAGE or size exclusion chromatography (self-association)
Description: For nondenaturing SDS-PAGE, one μg of each purified DsRed variant or wild-type DsRed was mixed with SDS-containing sample buffer on ice and immediately electrophoresed at 4° C. in a 10% polyacrylamide gel, followed by staining with Coomassie Blue. Additional aliquots of wild-type DsRed and DsRed variants were denatured by boiling prior to electrophoresis.

B1: DsRed.M1 (other)
chain: MDNTEDVIKEFMQFKVRMEGSVNGHYFEIEGEGEGKPYEGTQTAKLQVTKGGPLPFAWDILSPQFQYGSKAYVKHPADIPDYMKLSFPEGFTWERSMNFEDGGVVEVQQDSSLQDGTFIYKVKFKGVNFPADGPVMQKKTAGWEPSTEKLYPQDGVLKGEISHALKLKDGGHYTCDFKTVYKAKKPVQLPGNHYVDSKLDITNHNEDYTVVEQYEHAEARHSGSQ
notes: Purified protein tested for its oligomeric state; also called monomeric DsRed variant; red fluorescent DsRed monomer
Q: Does B1 bind?
A: no binding
